From patent US20210324028A1 (Pfizer, published 2021)

T1: human IL-2Rβ (human, UniProt P14784 27-240, limits assumed)
T1 construct: also called hIL-2Rβ; IL-2 receptor beta
T1 sequence (looked up): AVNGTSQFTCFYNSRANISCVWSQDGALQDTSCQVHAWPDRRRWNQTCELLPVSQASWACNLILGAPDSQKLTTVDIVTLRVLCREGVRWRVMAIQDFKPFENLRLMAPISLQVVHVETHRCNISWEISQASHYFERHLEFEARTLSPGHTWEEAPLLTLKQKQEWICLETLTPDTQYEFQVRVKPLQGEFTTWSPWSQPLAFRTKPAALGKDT


Key:
human IL-15Rα = target: T2, human IL-15Rα (human, UniProt Q13261 31-205, limits assumed); assay: SPR, steady state
T2 construct: also called hIL-15Rα; IL-15 receptor alpha

human IL-2Rβ = target: T1, human IL-2Rβ; assay: SPR, steady state

T2 sequence (Q13261 31-205 limits assumed): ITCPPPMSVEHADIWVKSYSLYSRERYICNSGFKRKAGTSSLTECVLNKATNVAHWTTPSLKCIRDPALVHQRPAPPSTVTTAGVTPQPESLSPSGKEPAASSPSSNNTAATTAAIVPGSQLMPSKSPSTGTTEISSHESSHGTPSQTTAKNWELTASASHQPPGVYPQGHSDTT

| Kd (human IL-15Rα) | Kd (human IL-2Rβ) | Binder |
| --- | --- | --- |
| 197 nM | 201 nM | hIL-15 V49R/D30I (ligand) NWVNVISDLKKIEDLIQSMHIDATLYTESIVHPSCKVTAMKCFLLELQRISLESGDASIHDTVENLIILANNSLSSNGNVTESGCKECEELEEKNIKEFLQSFVHIVQMFINTGGGGSGHHHHHHHHGGGLNDIFEAQKIEWHE |
| 142 nM | 238 nM | hIL-15 V49R/D30M (ligand) NWVNVISDLKKIEDLIQSMHIDATLYTESMVHPSCKVTAMKCFLLELQRISLESGDASIHDTVENLIILANNSLSSNGNVTESGCKECEELEEKNIKEFLQSFVHIVQMFINTGGGGSGHHHHHHHHGGGLNDIFEAQKIEWHE |
| 85.5 nM | 123 nM | hIL-15 V49R/H32D (ligand) NWVNVISDLKKIEDLIQSMHIDATLYTESDVDPSCKVTAMKCFLLELQRISLESGDASIHDTVENLIILANNSLSSNGNVTESGCKECEELEEKNIKEFLQSFVHIVQMFINTGGGGSGHHHHHHHHGGGLNDIFEAQKIEWHE |
| 92.8 nM | 149 nM | hIL-15 V49R/H32K (ligand) NWVNVISDLKKIEDLIQSMHIDATLYTESDVKPSCKVTAMKCFLLELQRISLESGDASIHDTVENLIILANNSLSSNGNVTESGCKECEELEEKNIKEFLQSFVHIVQMFINTGGGGSGHHHHHHHHGGGLNDIFEAQKIEWHE |
| 152 nM | 218 nM | hIL-15 V49R/H32A (ligand) NWVNVISDLKKIEDLIQSMHIDATLYTESDVAPSCKVTAMKCFLLELQRISLESGDASIHDTVENLIILANNSLSSNGNVTESGCKECEELEEKNIKEFLQSFVHIVQMFINTGGGGSGHHHHHHHHGGGLNDIFEAQKIEWHE |
| 108 nM | 130 nM | hIL-15 V49R/H32E (ligand) NWVNVISDLKKIEDLIQSMHIDATLYTESDVEPSCKVTAMKCFLLELQRISLESGDASIHDTVENLIILANNSLSSNGNVTESGCKECEELEEKNIKEFLQSFVHIVQMFINTGGGGSGHHHHHHHHGGGLNDIFEAQKIEWHE |
| 184 nM | 269 nM | hIL-15 V49R/D30T (ligand) NWVNVISDLKKIEDLIQSMHIDATLYTESTVHPSCKVTAMKCFLLELQRISLESGDASIHDTVENLIILANNSLSSNGNVTESGCKECEELEEKNIKEFLQSFVHIVQMFINTGGGGSGHHHHHHHHGGGLNDIFEAQKIEWHE |
| 134 nM | 161 nM | hIL-15 V49R/H32M (ligand) NWVNVISDLKKIEDLIQSMHIDATLYTESDVMPSCKVTAMKCFLLELQRISLESGDASIHDTVENLIILANNSLSSNGNVTESGCKECEELEEKNIKEFLQSFVHIVQMFINTGGGGSGHHHHHHHHGGGLNDIFEAQKIEWHE |
| 85.9 nM | 124 nM | hIL-15 V49R/H32N (ligand) NWVNVISDLKKIEDLIQSMHIDATLYTESDVNPSCKVTAMKCFLLELQRISLESGDASIHDTVENLIILANNSLSSNGNVTESGCKECEELEEKNIKEFLQSFVHIVQMFINTGGGGSGHHHHHHHHGGGLNDIFEAQKIEWHE |
| 130 nM | > 500 nM | hIL-15 V49R/E64A (ligand) NWVNVISDLKKIEDLIQSMHIDATLYTESDVHPSCKVTAMKCFLLELQRISLESGDASIHDTVANLIILANNSLSSNGNVTESGCKECEELEEKNIKEFLQSFVHIVQMFINTGGGGSGHHHHHHHHGGGLNDIFEAQKIEWHE |
| 249 nM | 459 nM | hIL-15 V49R/H32G (ligand) NWVNVISDLKKIEDLIQSMHIDATLYTESDVGPSCKVTAMKCFLLELQRISLESGDASIHDTVENLIILANNSLSSNGNVTESGCKECEELEEKNIKEFLQSFVHIVQMFINTGGGGSGHHHHHHHHGGGLNDIFEAQKIEWHE |
| 189 nM | 159 nM | hIL-15 V49R/H32L (ligand) NWVNVISDLKKIEDLIQSMHIDATLYTESDVLPSCKVTAMKCFLLELQRISLESGDASIHDTVENLIILANNSLSSNGNVTESGCKECEELEEKNIKEFLQSFVHIVQMFINTGGGGSGHHHHHHHHGGGLNDIFEAQKIEWHE |
| 127 nM | > 500 nM | hIL-15 V49R/E64Q (ligand) NWVNVISDLKKIEDLIQSMHIDATLYTESDVHPSCKVTAMKCFLLELQRISLESGDASIHDTVQNLIILANNSLSSNGNVTESGCKECEELEEKNIKEFLQSFVHIVQMFINTGGGGSGHHHHHHHHGGGLNDIFEAQKIEWHE |
| 112 nM | > 1000 nM | hIL-15 V49R/E64H (ligand) NWVNVISDLKKIEDLIQSMHIDATLYTESDVHPSCKVTAMKCFLLELQRISLESGDASIHDTVHNLIILANNSLSSNGNVTESGCKECEELEEKNIKEFLQSFVHIVQMFINTGGGGSGHHHHHHHHGGGLNDIFEAQKIEWHE |
| 158 nM | 351 nM | hIL-15 V49R/D30K (ligand) NWVNVISDLKKIEDLIQSMHIDATLYTESKVHPSCKVTAMKCFLLELQRISLESGDASIHDTVENLIILANNSLSSNGNVTESGCKECEELEEKNIKEFLQSFVHIVQMFINTGGGGSGHHHHHHHHGGGLNDIFEAQKIEWHE |
| 237 nM | 277 nM | hIL-15 V49R/D30L (ligand) NWVNVISDLKKIEDLIQSMHIDATLYTESLVHPSCKVTAMKCFLLELQRISLESGDASIHDTVENLIILANNSLSSNGNVTESGCKECEELEEKNIKEFLQSFVHIVQMFINTGGGGSGHHHHHHHHGGGLNDIFEAQKIEWHE |
| 115 nM | > 500 nM | hIL-15 V49R/E64N (ligand) NWVNVISDLKKIEDLIQSMHIDATLYTESDVHPSCKVTAMKCFLLELQRISLESGDASIHDTVNNLIILANNSLSSNGNVTESGCKECEELEEKNIKEFLQSFVHIVQMFINTGGGGSGHHHHHHHHGGGLNDIFEAQKIEWHE |
| 108 nM | 291 nM | hIL-15 V49R/E64D (ligand) NWVNVISDLKKIEDLIQSMHIDATLYTESDVHPSCKVTAMKCFLLELQRISLESGDASIHDTVDNLIILANNSLSSNGNVTESGCKECEELEEKNIKEFLQSFVHIVQMFINTGGGGSGHHHHHHHHGGGLNDIFEAQKIEWHE |
| 111 nM | 197 nM | hIL-15 V49R/D30Q (ligand) NWVNVISDLKKIEDLIQSMHIDATLYTESQVHPSCKVTAMKCFLLELQRISLESGDASIHDTVENLIILANNSLSSNGNVTESGCKECEELEEKNIKEFLQSFVHIVQMFINTGGGGSGHHHHHHHHGGGLNDIFEAQKIEWHE |
| 146 nM | 249 nM | hIL-15 V49R/D30S (ligand) NWVNVISDLKKIEDLIQSMHIDATLYTESSVHPSCKVTAMKCFLLELQRISLESGDASIHDTVENLIILANNSLSSNGNVTESGCKECEELEEKNIKEFLQSFVHIVQMFINTGGGGSGHHHHHHHHGGGLNDIFEAQKIEWHE |
| 159 nM | 231 nM | hIL-15 V49R/D30Y (ligand) NWVNVISDLKKIEDLIQSMHIDATLYTESYVHPSCKVTAMKCFLLELQRISLESGDASIHDTVENLIILANNSLSSNGNVTESGCKECEELEEKNIKEFLQSFVHIVQMFINTGGGGSGHHHHHHHHGGGLNDIFEAQKIEWHE |
| 78.2 nM | > 500 nM | hIL-15 V49R/D61A (ligand) NWVNVISDLKKIEDLIQSMHIDATLYTESDVHPSCKVTAMKCFLLELQRISLESGDASIHATVENLIILANNSLSSNGNVTESGCKECEELEEKNIKEFLQSFVHIVQMFINTGGGGSGHHHHHHHHGGGLNDIFEAQKIEWHE |
| 141 nM | > 500 nM | hIL-15 V49R/E64T (ligand) NWVNVISDLKKIEDLIQSMHIDATLYTESDVHPSCKVTAMKCFLLELQRISLESGDASIHDTVTNLIILANNSLSSNGNVTESGCKECEELEEKNIKEFLQSFVHIVQMFINTGGGGSGHHHHHHHHGGGLNDIFEAQKIEWHE |
| 153 nM | 258 nM | hIL-15 V49R/D30V (ligand) NWVNVISDLKKIEDLIQSMHIDATLYTESVVHPSCKVTAMKCFLLELQRISLESGDASIHDTVENLIILANNSLSSNGNVTESGCKECEELEEKNIKEFLQSFVHIVQMFINTGGGGSGHHHHHHHHGGGLNDIFEAQKIEWHE |
| 94 nM | 163 nM | hIL-15 V49R/D30N (ligand) NWVNVISDLKKIEDLIQSMHIDATLYTESNVHPSCKVTAMKCFLLELQRISLESGDASIHDTVENLIILANNSLSSNGNVTESGCKECEELEEKNIKEFLQSFVHIVQMFINTGGGGSGHHHHHHHHGGGLNDIFEAQKIEWHE |
| 155 nM | 290 nM | hIL-15 V49R/D30R (ligand) NWVNVISDLKKIEDLIQSMHIDATLYTESRVHPSCKVTAMKCFLLELQRISLESGDASIHDTVENLIILANNSLSSNGNVTESGCKECEELEEKNIKEFLQSFVHIVQMFINTGGGGSGHHHHHHHHGGGLNDIFEAQKIEWHE |
| 113 nM | 110 nM | hIL-15 V49R/H32I (ligand) NWVNVISDLKKIEDLIQSMHIDATLYTESDVIPSCKVTAMKCFLLELQRISLESGDASIHDTVENLIILANNSLSSNGNVTESGCKECEELEEKNIKEFLQSFVHIVQMFINTGGGGSGHHHHHHHHGGGLNDIFEAQKIEWHE |
